{"source": "paper PMC10570013", "binders": {"B1": {"name": "model dsRNA (dsRNA)", "RNA 1": "GAUGCUACGCGGUAGUA", "RNA 2": "GUACUACCGCGUAGCAUC"}}, "target": "Nsp8 NTD (SARS-CoV-2, UniProt P0DTD1)", "experiment": "NMR"}
{"binder": "B1", "values": [{"measurement": "Kd", "result": "~14.1", "unit": "µM"}]}
